From publication PMC5897774, “Mitotic spindle association of TACC3 requires Aurora‐A‐dependent stabilization of a cryptic α‐helix” (The EMBO Journal, 2018)
Read-outs that look alike come from different tables or passages of the source. No end group written: not given here.

Key:
Aurora‐A R151A = biological target: T1, Aurora‐A R151A (Homo sapiens, UniProt O14965, C290A/C393A/R151A); assay: Radioactive 32P‐ATP kinase assay, MBP substrate, Aurora‐A R151A; assay type: biochemical; conditions: 0.625 μM Aurora‐A R151A, 5 μM TACC3^N‐ACID, 0.25 mg/ml MBP, 10 min, scintillation counting, duplicate
T1 construct: pET30TEV Aurora‐A 122–403 C290A, C393A were produced in a similar manner; made in house
T1 sequence (O14965 122-403 R151A/C290A/C393A): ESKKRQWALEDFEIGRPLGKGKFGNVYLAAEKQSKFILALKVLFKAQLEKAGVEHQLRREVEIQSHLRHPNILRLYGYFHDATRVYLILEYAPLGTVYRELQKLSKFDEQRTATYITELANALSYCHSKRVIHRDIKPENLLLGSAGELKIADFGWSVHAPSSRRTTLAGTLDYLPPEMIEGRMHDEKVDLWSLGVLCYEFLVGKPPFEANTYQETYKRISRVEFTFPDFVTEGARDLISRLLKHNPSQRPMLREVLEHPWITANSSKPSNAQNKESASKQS
Experimental: Figure EV2 Biochemical and structural analysis of the Aurora‐A/TACC3 complex • FP assay between FAM‐TACC3 519–570 and Aurora‐A. Reactions were performed in triplicate. Error bars represent standard deviation. […] Error bars represent standard deviation. […] This peptide was based on the location of a sulphate ion, originating from the crystallization solution, at the interface of the Aurora‐A/TACC3 interface in the crystal structure, close to TACC3 T534. […] Myelin basic protein (MBP) was used as a generic kinase substrate. Incorporation of radioisotope was measured by scintillation counting. Reactions were performed in duplicate. Error bars represent standard error. Assays were compared to the WT TACC3^N‐ACIDH6c reaction by one‐way ANOVA with Dunnett's post hoc test. *P < 0.1, **P < 0.01 and ****P < 0.0001. • Multiple sequence alignment of TACC3 (above) and Aurora‐A (below) orthologs spanning the interaction binding interface. Key binding residues are boxed in red. The TACC3 phosphorylation sites, S552 and S558, are boxed in blue. The TACC3 LL motif required for binding to CHC is boxed in green. […]
Radioactive ^32P‐ATP kinase assays were performed as described previously (Burgess et al, 2015). […] Samples were spotted onto P81 Whatman paper, washed extensively with 0.2% (v/v) orthophosphoric acid and incorporation of radioisotope measured by scintillation counting.

[1] = system: unphosphorylated Aurora‐A KD; assay: Autophosphorylation assay of unphosphorylated Aurora‐A KD (Western blot αphospho‐T288); assay type: biochemical, human; conditions: unphosphorylated Aurora‐A 122–403, 1 h, room temperature
Source text: (§1) Figure 2 TACC3 523–534 forms a docking interaction on the N‐lobe of Aurora‐A • Magnified view of the site 1 interaction. • Schematic showing the key features of the TACC3/Aurora‐A interface. • FP assays of binding between site 1 of TACC3 and Aurora‐A. The sequence of TACC3 present in the complex crystal structure is shown (top) with the residues of the site 1 FP peptide coloured orange and mutated residues identified by coloured circles corresponding to the curves shown in the FP assay (below). Data represent mean of three experiments ± SD. […] Data represent mean of three experiments ± SD. […] Reactions were analysed by SDS–PAGE (above) and Western blotting with an αphospho‐T288 Aurora‐A antibody (below). […] They are listed as printed.
(§2) Autophosphorylation assays were performed as for radioactive ^32P‐ATP reactions using Aurora‐A 122–403 co‐expressed with lambda phosphatase for 1 h at room temperature with His‐Aurora‐A D274N as a substrate in replace of MBP. Reactions were resolved by SDS–PAGE and subject to Western blotting using an α‐phospho‐T288 Aurora‐A antibody (CST 2914, 1:2,000) as per the manufacturer's recommendation.

Aurora‐A [2] = biological target: T2, Aurora‐A (Homo sapiens, UniProt O14965, C290A/C393A); parameters: method as in Burgess et al, 2015; conditions: ref Burgess et al, 2015, cited from earlier work
T2 construct: pET30TEV Aurora‐A 122–403 C290A, C393A; made in house
T2 sequence (O14965 122-403 C290A/C393A): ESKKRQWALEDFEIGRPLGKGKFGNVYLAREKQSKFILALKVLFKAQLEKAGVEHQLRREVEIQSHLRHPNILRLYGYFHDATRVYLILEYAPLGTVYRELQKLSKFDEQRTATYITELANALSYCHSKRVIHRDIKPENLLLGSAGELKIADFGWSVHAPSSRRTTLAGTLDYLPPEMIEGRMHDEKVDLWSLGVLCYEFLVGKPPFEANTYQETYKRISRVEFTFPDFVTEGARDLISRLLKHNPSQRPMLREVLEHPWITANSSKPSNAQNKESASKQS

Aurora‐A [3] = biological target: T2, Aurora‐A; assay: Radioactive 32P‐ATP kinase assay, MBP substrate; assay type: biochemical; conditions: 0.625 μM phosphorylated Aurora‐A, 5 μM TACC3^N‐ACID, 0.25 mg/ml MBP, 10 min, scintillation counting, duplicate
Experimental: Figure EV2 Biochemical and structural analysis of the Aurora‐A/TACC3 complex • FP assay between FAM‐TACC3 519–570 and Aurora‐A. Reactions were performed in triplicate. Error bars represent standard deviation. […] Error bars represent standard deviation. […] This peptide was based on the location of a sulphate ion, originating from the crystallization solution, at the interface of the Aurora‐A/TACC3 interface in the crystal structure, close to TACC3 T534. […] Myelin basic protein (MBP) was used as a generic kinase substrate. Incorporation of radioisotope was measured by scintillation counting. Reactions were performed in duplicate. Error bars represent standard error. Assays were compared to the WT TACC3^N‐ACIDH6c reaction by one‐way ANOVA with Dunnett's post hoc test. […], **P < 0.01 and ****P < 0.0001. • Multiple sequence alignment of TACC3 (above) and Aurora‐A (below) orthologs spanning the interaction binding interface. Key binding residues are boxed in red. The TACC3 phosphorylation sites, S552 and S558, are boxed in blue. The TACC3 LL motif required for binding to CHC is boxed in green. The TACC3 α‐helix produced on binding to CHC is identified by a black line. TEXT PRINTED IN THE PICTURE: (A) TACC3 519-570: 3.0 ± 0.2 μM | (B) WT: 20 ± 1 μM | (B) R526A: 49 ± 2 μM | (B) phospho-T534: 14 ± 1 μM
Radioactive ^32P‐ATP kinase assays were performed as described previously (Burgess et al, 2015). In brief, 0.625 μM Aurora‐A^M3KD WT or selected mutant was incubated with 0.25 mg/ml MBP alone and in the presence of 5 μM TACC3^N‐ACID WT or mutant for 10 min. Reactions were terminated by the addition of 2% (v/v) orthophosphoric acid. Samples were spotted onto P81 Whatman paper, washed extensively with 0.2% (v/v) orthophosphoric acid and incorporation of radioisotope measured by scintillation counting.

[4] = system: Aurora‐A KD (substrate: Aurora‐A D274N); assay: Substrate phosphorylation of kinase‐dead Aurora‐A D274N by Aurora‐A KD (Western blot αphospho‐T288); assay type: biochemical, human; conditions: Aurora‐A D274N as substrate, 1 h, room temperature
Source text: as §1, §2

TACC3^N‐ACID: N-terminal fragment of the Aurora-A and CHC interaction domain of TACC3, aa519–563 (ELKEESFRDPAEVLGTGAEVDYLEQFGTSSFKESALRKQSLYLKF; not fully specified)
stimulation of Aurora‐A R151A activity by TACC3 (Aurora‐A R151A): reduced stimulation
Aurora‐A autophosphorylation on T288 [1]: stimulated
Kd (Aurora‐A [2]; microscale thermophoresis and NMR, read-out: K d measured by MST and NMR): 6 to 8 µM
Kd (Aurora‐A [2]; previous data, effect of F525A mutation, read-out: K d of the interaction): 5.7 µM
stimulation of Aurora‐A activity (Aurora‐A [3]): eightfold
substrate phosphorylation on T288 (Aurora‐A D274N) [4]: stimulated
